Experimental findings from patent US20230277618A1 (BROAD INSTITUTE, published 2023) are described below.

In this assay the target is T1, KIDINS220 (kinase D interacting substrate 220), endogenous in HEK-293T cells (human, UniProt Q9ULH0 1-1771).
T1 construct: whole, on cells; Endogenous protein of the 293 cells, detected by immunoblot after co-immunoprecipitation; also called ARMS; SINO
Put plainly: co-immunoprecipitation by V5 tag from HEK-293T cells, immunoblot for endogenous KIDINS220. On the technique in general: In western blotting, separated proteins are transferred to a membrane and probed.

T1 sequence (Q9ULH0 whole entry): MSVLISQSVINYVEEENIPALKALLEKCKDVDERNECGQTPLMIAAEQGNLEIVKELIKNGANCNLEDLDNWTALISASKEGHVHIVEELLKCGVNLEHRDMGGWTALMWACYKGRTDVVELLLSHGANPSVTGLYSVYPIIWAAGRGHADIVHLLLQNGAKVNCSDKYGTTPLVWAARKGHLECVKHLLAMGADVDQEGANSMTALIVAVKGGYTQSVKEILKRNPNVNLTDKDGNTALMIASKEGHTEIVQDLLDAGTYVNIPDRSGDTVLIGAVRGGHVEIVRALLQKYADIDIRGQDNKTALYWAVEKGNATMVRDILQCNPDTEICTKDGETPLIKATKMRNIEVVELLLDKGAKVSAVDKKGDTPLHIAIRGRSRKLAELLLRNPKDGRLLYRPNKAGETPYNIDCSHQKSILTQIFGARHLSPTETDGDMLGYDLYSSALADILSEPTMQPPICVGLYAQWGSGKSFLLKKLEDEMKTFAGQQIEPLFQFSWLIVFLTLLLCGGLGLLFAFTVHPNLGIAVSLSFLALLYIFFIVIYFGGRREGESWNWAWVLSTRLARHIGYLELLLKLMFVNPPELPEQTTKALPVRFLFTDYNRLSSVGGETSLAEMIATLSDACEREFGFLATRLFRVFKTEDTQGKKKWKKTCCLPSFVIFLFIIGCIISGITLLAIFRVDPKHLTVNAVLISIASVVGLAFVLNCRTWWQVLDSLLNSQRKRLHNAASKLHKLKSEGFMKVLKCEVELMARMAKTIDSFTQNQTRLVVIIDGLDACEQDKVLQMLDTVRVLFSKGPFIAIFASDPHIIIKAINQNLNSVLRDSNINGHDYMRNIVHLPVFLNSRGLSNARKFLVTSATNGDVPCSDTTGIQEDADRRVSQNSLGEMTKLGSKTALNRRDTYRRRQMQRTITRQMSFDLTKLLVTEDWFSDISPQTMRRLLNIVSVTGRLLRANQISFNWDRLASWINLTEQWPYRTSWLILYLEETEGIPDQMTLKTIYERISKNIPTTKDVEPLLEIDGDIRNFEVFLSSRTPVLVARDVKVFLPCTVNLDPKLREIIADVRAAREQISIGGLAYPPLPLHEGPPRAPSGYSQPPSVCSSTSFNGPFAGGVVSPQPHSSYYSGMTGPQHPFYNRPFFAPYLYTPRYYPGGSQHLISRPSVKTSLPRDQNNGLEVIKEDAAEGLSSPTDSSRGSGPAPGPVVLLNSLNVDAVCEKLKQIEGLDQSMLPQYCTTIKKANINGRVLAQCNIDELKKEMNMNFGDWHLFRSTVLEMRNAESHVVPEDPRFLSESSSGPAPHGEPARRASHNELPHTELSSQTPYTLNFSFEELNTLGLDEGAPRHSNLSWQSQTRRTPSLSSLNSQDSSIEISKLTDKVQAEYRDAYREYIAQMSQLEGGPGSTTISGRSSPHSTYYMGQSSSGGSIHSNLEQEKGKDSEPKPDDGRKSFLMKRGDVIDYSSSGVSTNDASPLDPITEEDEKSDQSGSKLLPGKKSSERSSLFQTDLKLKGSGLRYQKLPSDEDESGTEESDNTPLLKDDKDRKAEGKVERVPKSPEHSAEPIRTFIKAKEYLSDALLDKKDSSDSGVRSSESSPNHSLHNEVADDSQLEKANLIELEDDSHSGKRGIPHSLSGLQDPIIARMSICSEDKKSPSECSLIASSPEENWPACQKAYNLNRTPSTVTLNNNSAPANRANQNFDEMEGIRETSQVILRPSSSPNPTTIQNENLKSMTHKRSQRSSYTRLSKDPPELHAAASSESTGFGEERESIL

B1: XPR1 SPX domain only construct with C-terminal V5 tag (other, human, UniProt Q9UBH6 1-224, looked up, not shown: small tags and cut ends)
chain: MKFAEHLSAHITPEWRKQYIQYEAFKDMLYSAQDQAPSVEVTDEDTVKRYFAKFEEKFFQTCEKELAKINTFYSEKLAEAQRRFATLQNELQSSLDAQKESTGVTTLRQRRKPVFHLSHEERVQHRNIKDLKLAFSEFYLSLILLQNYQNLNFTGFRKILKKHDKILETSRGADWRVAHVEVAPFYTCKKINQLISETEAVVTNELEDGDRQKAMKRLRVPPLG
notes: domain: SPX domain; also called SPX domain only constructs; N-terminal SPX domain of XPR1
B1: the binding result is “no binding”.
